The values below come from publication PMC5777247, “Cohesin SA2 is a sequence-independent DNA-binding protein that recognizes DNA replication and repair intermediates”.

For one data set, the target named is T1, SA2 1-1051 (human, UniProt Q8N3U4 1-1051).
T1 sequence: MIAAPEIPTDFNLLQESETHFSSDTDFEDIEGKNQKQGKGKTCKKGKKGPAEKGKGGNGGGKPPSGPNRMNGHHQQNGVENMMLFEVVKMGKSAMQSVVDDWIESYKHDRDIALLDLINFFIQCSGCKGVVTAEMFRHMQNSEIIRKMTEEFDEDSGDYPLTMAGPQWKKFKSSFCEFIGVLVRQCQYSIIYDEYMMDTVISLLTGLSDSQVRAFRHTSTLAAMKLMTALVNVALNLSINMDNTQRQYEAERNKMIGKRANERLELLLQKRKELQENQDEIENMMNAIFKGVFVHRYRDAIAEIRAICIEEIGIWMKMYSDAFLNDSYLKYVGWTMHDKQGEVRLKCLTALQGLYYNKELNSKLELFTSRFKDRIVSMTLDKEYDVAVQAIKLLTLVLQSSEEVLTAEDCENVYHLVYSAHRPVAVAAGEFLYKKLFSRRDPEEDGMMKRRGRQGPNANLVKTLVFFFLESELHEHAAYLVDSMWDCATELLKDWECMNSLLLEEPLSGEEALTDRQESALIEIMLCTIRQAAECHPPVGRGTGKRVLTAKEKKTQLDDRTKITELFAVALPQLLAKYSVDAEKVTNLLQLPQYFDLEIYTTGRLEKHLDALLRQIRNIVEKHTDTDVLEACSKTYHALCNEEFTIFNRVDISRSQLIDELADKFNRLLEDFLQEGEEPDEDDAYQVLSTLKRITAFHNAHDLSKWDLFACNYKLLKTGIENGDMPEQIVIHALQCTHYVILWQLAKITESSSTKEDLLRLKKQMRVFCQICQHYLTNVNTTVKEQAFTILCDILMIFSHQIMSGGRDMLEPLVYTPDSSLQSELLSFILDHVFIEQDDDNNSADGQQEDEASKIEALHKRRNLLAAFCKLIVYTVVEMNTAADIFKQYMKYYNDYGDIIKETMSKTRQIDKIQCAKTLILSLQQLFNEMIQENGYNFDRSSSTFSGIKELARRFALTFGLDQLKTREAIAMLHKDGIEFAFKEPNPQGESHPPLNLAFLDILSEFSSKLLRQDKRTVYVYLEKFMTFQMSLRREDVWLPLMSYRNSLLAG
In words: fluorescence anisotropy; Anisotropy: 20 mM Hepes pH 7.5, 0.1 mM MgCl2, 0.5 mM DTT, 100 mM KCl, 1 nM DNA; AFM: 20 mM Hepes pH 7.5, 100 mM KCl, 0.1 mM MgCl2, room temperature, 20 min. The note with it: protein: recombinant; tags: 6xHis; label: Alexa 488.

The target of another data set is T2, SA1 (STAG1), full length (UniProt Q8WVM7 1-1258).
T2 sequence: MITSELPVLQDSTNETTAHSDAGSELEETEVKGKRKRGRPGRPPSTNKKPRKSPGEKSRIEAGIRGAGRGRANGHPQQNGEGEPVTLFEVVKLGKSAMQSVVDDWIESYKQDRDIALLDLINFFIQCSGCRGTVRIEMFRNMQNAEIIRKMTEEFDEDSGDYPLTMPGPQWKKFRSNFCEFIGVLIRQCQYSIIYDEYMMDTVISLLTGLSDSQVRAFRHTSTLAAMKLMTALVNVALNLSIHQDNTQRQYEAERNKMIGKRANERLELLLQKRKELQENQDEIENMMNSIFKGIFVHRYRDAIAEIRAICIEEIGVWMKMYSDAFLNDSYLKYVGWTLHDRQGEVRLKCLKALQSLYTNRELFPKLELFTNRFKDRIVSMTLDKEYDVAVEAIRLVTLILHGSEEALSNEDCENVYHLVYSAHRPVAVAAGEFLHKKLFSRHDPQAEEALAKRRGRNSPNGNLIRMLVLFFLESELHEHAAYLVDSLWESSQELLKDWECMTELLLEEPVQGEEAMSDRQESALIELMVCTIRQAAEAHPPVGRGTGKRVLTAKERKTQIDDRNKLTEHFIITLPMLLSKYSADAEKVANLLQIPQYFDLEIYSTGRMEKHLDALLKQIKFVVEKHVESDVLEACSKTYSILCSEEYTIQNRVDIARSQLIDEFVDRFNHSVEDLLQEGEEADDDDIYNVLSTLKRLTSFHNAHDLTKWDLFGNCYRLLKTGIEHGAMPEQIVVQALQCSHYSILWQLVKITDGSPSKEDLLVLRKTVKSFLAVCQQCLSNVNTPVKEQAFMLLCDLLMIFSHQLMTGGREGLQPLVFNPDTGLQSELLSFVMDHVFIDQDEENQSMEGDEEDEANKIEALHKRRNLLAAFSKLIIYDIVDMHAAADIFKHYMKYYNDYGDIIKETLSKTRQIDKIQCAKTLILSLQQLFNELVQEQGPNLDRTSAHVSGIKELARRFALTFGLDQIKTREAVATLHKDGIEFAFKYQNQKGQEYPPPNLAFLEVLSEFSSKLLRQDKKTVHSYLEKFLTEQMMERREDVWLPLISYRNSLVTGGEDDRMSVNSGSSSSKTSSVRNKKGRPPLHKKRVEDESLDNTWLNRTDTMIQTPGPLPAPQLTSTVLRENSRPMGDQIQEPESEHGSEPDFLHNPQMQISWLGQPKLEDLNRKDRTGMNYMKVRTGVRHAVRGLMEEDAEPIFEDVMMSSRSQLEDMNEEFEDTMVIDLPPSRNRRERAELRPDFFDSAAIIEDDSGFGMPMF
Described as above. The note with it: protein: recombinant; label: Alexa 488.

Data set [1] addresses T3, SA2 (STAG2), full length (human, UniProt Q8N3U4 1-1231).
T3 sequence: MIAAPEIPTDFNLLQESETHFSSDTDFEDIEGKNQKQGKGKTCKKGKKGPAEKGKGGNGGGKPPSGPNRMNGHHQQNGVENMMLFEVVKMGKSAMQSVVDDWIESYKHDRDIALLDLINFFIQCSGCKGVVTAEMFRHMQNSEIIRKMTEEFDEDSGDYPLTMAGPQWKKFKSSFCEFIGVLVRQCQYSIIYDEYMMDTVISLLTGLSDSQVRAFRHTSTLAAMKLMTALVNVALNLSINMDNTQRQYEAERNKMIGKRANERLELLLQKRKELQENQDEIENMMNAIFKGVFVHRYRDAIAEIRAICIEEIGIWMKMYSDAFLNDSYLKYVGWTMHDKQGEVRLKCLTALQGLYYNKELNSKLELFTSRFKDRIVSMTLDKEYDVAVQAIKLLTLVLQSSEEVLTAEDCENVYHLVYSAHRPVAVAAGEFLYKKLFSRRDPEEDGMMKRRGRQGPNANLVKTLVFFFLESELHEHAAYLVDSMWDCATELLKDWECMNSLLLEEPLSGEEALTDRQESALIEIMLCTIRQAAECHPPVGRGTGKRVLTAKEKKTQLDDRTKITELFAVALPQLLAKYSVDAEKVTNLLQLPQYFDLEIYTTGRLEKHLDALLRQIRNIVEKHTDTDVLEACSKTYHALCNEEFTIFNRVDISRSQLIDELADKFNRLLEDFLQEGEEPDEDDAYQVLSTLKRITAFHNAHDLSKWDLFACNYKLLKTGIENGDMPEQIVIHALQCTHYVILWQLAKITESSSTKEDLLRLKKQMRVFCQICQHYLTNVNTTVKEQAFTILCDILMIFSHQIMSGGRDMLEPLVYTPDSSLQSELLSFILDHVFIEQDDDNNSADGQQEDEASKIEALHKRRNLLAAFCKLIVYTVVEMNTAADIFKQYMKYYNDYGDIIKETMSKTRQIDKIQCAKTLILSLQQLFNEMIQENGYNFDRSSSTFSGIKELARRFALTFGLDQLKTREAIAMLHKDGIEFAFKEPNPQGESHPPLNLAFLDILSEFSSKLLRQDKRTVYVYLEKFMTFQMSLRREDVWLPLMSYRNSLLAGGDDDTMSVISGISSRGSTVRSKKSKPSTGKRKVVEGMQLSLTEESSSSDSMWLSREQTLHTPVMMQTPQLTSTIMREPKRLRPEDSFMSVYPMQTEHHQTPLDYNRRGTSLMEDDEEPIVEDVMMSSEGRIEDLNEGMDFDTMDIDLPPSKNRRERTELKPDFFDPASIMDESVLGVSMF
The description is as above. The conditions noted are these: protein: recombinant; tags: 6xHis; label: Alexa 488.

In data set [2] the target is T3, SA2 (STAG2), full length. In words: fluorescence anisotropy; no detectable binding (ND); Anisotropy: 20 mM Hepes pH 7.5, 0.1 mM MgCl2, 0.5 mM DTT, 100 mM KCl, 1 nM DNA; AFM: 20 mM Hepes pH 7.5, 100 mM KCl, 0.1 mM MgCl2, room temperature, 20 min. The note with it: protein: recombinant; tags: 6xHis; label: 5' Alexa 488 on strand 1; blunt. For orientation: In fluorescence polarisation assays a small probe gives low polarisation when free and higher when bound to something large.

B1: ss66 (Alexa ss66) (ssDNA)
DNA: CTGGATCCGTACAGTGTAAGGGTGAGTGGTTGGGTGTGTGGGTGTTGATGTAGAACAAGAATTCGA
For orientation: Kd means the free concentration of one partner at which half of the binding sites on the other are occupied at equilibrium, for simple one-to-one binding. In the case of B1, the equilibrium dissociation constant (Kd) in the data set with SA2 1-1051 came out at 28 nM; in the data set with SA1 (STAG1), full length, 36.5 ± 0.2 nM; in the data set with SA2 (STAG2), full length [1], 41 ± 5.3 nM.

B2: ds25 (Alexa ss25 + ss-25-com) (dsDNA)
DNA 1: TGTCGCATAGTGTAGTCGGTCTTGT
DNA 2: ACAAGACCGACTACACTATGCGACA
Turning to B2, the binding result with SA2 (STAG2), full length [2] is “no binding”.
